Target: T1, human IL-25 receptor (IL-17RA/IL-17RB) on HEK293/NFκB-luc/hIL17RA/hIL17RB/hAct1 cells (human, UniProt Q96F46 33-866; Q9NRM6 18-502)
T1 sequence (looked up) 1: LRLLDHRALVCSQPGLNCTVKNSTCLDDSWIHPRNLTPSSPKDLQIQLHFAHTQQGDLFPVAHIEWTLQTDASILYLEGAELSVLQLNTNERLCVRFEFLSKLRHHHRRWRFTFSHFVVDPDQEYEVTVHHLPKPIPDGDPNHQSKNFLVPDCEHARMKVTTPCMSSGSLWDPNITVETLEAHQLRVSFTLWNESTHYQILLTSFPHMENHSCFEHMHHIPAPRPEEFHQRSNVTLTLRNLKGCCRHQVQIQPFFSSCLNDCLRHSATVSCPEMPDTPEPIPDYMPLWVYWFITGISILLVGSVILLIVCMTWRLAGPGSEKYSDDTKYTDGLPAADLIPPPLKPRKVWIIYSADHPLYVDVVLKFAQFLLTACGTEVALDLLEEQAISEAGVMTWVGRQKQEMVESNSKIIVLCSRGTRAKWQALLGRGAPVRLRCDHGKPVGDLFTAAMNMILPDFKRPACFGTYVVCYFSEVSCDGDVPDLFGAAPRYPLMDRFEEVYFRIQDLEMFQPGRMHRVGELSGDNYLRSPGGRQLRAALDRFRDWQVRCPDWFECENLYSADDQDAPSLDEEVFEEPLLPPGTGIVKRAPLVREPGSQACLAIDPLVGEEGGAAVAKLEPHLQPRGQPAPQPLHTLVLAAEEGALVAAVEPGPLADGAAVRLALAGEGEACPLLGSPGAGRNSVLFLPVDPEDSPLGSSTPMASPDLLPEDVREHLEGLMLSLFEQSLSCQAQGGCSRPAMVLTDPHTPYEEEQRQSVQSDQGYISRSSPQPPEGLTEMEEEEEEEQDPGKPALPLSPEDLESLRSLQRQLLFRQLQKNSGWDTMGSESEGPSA
T1 sequence (looked up) 2: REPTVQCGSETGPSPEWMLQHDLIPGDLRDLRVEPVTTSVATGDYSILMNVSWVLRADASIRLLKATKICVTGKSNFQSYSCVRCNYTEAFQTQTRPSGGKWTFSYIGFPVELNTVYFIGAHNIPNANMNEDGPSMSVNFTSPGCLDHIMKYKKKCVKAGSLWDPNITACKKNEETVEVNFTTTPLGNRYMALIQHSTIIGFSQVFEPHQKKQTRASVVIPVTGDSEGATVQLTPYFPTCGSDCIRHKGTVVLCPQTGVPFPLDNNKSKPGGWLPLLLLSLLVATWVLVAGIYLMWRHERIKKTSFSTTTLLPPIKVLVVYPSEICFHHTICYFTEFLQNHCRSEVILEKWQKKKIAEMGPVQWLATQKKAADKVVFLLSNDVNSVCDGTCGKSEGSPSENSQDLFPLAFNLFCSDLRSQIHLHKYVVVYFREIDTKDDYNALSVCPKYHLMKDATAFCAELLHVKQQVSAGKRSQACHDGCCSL
Test: cell-based or functional assay

Binder | EC50, NFκB-luciferase activation of HEK293/NFκB-luc/hIL17RA/hIL17RB/hAct1 cells | EC50, NFκB-luciferase activation of HEK293/NFκB-luc/hIL17RA/hIL17RB/hAct1 cells (first assay day) | EC50, NFκB-luciferase activation of HEK293/NFκB-luc/hIL17RA/hIL17RB/hAct1 cells (second assay day)
monkey IL-25 expressed with a C-terminal myc-myc-hexahistidine tag (ligand) YSHWPSCCPSKGYPSEELLRWSTVPVPPLKPASLDFHSVSCRASEDGPLNSRAISPWRYELDRDLNRLPQDLYHARCLCPHCVSLQTGSHMDPRGNSELLYHNQTVFYRRPCHGKKGNHKGYCLERRLYRVSLACVCVRPRVMGEQKLISEEDLGGEQKLISEEDLHHHHHH | 0.019 nM | – | –
mouse IL-25 expressed with a C-terminal myc-myc-hexahistidine tag (ligand) VSLRIQEGCSHLPSCCPSKEQEPPEEWLKWSSASVSPPEPLSHTHHAESCRASKDGPLNSRAISPWSYELDRDLNRVPQDLYHARCLCPHCVSLQTGSHMDPLGNSVPLYHNQTVFYRRPCHGEEGTHRRYCLERRLYRVSLACVCVRPRVMAEQKLISEEDLGGEQKLISEEDLHHHHHH | 0.0084 nM | – | –
human IL-25 expressed with a C-terminal myc-myc-hexahistidine tag (ligand) YSHWPSCCPSKGQDTSEELLRWSTVPVPPLEPARPNRHPESCRASEDGPLNSRAISPWRYELDRDLNRLPQDLYHARCLCPHCVSLQTGSHMDPRGNSELLYHNQTVFYRRPCHGEKGTHKGYCLERRLYRVSLACVCVRPRVMGEQKLISEEDLGGEQKLISEEDLHHHHHH | – | 0.0029 nM | 0.016 nM

From patent US20160083466A1 (Regeneron, published 2016)
